Where no end group is shown, it is not given here.
Experiments:
Aβ 29-42 [1] = target: T1, Aβ 29-42 (Homo sapiens, UniProt P05067); type: biochemical; conditions: for % of fusion after 15 minutes: 1/1 peptide ratio, room temperature, average of plateau (10-15 minutes) of three experiments, Aβ alone = 100%
SH-SY5Y cells [2] = assay: Cell toxicity assay (MTS) of single peptides on human neuroblastoma cell line; type: cell-based; conditions: 24 h, FIG. 7 / FIG. 8
SH-SY5Y cells [3] = assay: Cell toxicity assay (MTS) in presence of both the Aβ 1-42 and ApoE 270-287 peptides; type: cell-based, human; conditions: 2 μM ApoE 270-287 + 100 μM Aβ 1-42 (ratio 1/50), 24 h, FIG. 9
Aβ 29-42 [4] = type: biochemical; conditions: without Aβ 29-42; data not shown
Text: (§1) In this leakage assay, performed according to the procedure described in Ellens et al. (Ellens, H., Bentz, J., and Szoka, F. C. (1985) Biochemistry 24, 3099-3106), a substance encapsulated in the liposomes is followed by fluorescence measurement. HPTS ([…]) and his quencher DPX (p-xylylenebis[pyridinium]bromide) were both encapsulated in the aqueous phase of the same liposomes. Liposomes were eluted on a Sephadex G75 column to remove the excess of HPTS and DPX.
(§2) Fluorescence was measured at room temperature using excitation and emission wavelengths of 450 nm and 512 nm, respectively. Leakage induced by the Aβ peptide was followed by measuring the dequenching of HPTS released into the medium. The percentage of release induced by the peptide was defined as Ft/Ftot×100, where Ft is the fluorescence signal measured at time t and Ftot is the signal obtained after lysing the vesicles with 0.5% Triton X100.

Aβ 29-42 [5] = target: T1, Aβ 29-42; type: biochemical; design: made in house; host or cells: chemical peptide synthesis (no expression host); conditions: for HPTS fluorescence signal when added to Aβ 29-42 (inhibition of membrane destabilization): independently of the mutant/Aβ 29-42 molar ratio, Aβ peptide/lipid molar ratio 0.4, FIGS. 4a and b
Text: as §1, §2

[6] = target: T2, β-Amyloid peptidic fragment 29-42 (Aβ 29-42) (C-terminal and N-terminal blocked (N-amidated and C-acetylated) (so in the source)); assay: cell-based or functional assay
[7] = target: T2, β-Amyloid peptidic fragment 29-42 (Aβ …); assay: cell-based or functional assay; remark: listed apart in the source

Molecule: Ac-EDMQRQWAGLVEKVQAAV-NH2 [ApoE WT]
- % of fusion after 15 minutes (Aβ 29-42 [1]): 89%
- fluorescence signal (lipid fusion), Aβ 29-42 alone taken as 100% fusion reference (Aβ 29-42 [1]; FIG. 3, added to Aβ 29-42 at molar ratio of 1, Aβ peptide/lipid ratio 0,4 (mol/mol)): about 91%
- cell toxicity (viability against increasing peptide concentrations) (SH-SY5Y cells [2]): induces cell toxicity only at 100 μM
- cell viability in presence of Aβ 1-42 and the complementary peptide (SH-SY5Y cells [3]): 80%

Molecule: Aβ 1-40: β-Amyloid 1-40 peptide
- cell toxicity (viability against increasing peptide concentrations) (SH-SY5Y cells [2]): does not induce any

Molecule: EDMQRQLAGVVEKVQAAV (also: N- and C-terminal blocking) [ApoE mutant 11, peptide derived from ApoE WT]
- destabilization effects of the peptide alone on the membranes (Aβ 29-42 [4]): no destabilization effects on the membranes
- HPTS fluorescence signal when added to Aβ 29-42 (inhibition of membrane destabilization) (Aβ 29-42 [5]): much weaker

Molecule: EDMQRQMAGLMEKMQAAV (also: N- and C-terminal blocking) [ApoE mutant 413, peptide derived from ApoE WT]
- destabilization effects of the peptide alone on the membranes (Aβ 29-42 [4]): no destabilization effects on the membranes
- HPTS fluorescence signal when added to Aβ 29-42 (inhibition of membrane destabilization) (Aβ 29-42 [5]): much weaker

Molecule: GAIIGLMVGGVVIA (listed as Homo sapiens) [Aβ 29-42, C-terminal part of the β-Amyloid protein, tilted fusion peptide]
- % of fusion after 15 minutes (Aβ 29-42 [1]): 100%
- % of leakage after 15 minutes (Aβ 29-42 [5]; 1/1 peptide ratio, room temperature, average of plateau (10-15 minutes) of three experiments): 28%

Molecule: Ac-EDMQRQMAGLMEKMQAAV-NH2 [ApoE mutant 413]
- R18 fluorescence signal of lipid fusion against Aβ 29-42 alone as 100% (FIG. 3, molar ratio of 1) [6]: 25%
- % of fusion after 15 minutes (R18 lipid fusion of SUV induced by Aβ 29-42, 1/1 peptide ratio) [7]: 21%
- % of leakage after 15 minutes (HPTS/DPX liposome leakage induced by Aβ 29-42, 1/1 peptide ratio) [7]: 4%

Molecule: Ac-EDMQRQLAGVVEKVQAAV-NH2 [ApoE mutant 11]
- R18 fluorescence signal of lipid fusion against Aβ 29-42 alone as 100% (FIG. 3, molar ratio of 1) [6]: 23%
- % of fusion after 15 minutes (R18 lipid fusion of SUV induced by Aβ 29-42, 1/1 peptide ratio) [7]: 17%
- % of leakage after 15 minutes (HPTS/DPX liposome leakage induced by Aβ 29-42, 1/1 peptide ratio) [7]: 0%

Molecule: EDMQRQWAGLVEKVQAAV (not fully specified (N-terminus, C-terminus)) [wild type Apolipoprotein E3 peptide 270-287 (ApoE WT)]
- R18 fluorescence signal of lipid fusion against Aβ 29-42 alone as 100% (FIG. 3, molar ratio of 1) [6]: ~91%
- % of fusion after 15 minutes (R18 lipid fusion of SUV induced by Aβ 29-42, 1/1 peptide ratio) [7]: 89%
